In patent US12099068B2, “Biomarkers for graft-versus-host disease” (Incyte Corporation, priority 2018, dated 2024):

Test system: plasma proteins
Experiment: Plasma proteins modulated between baseline and day 28 in responders (CR, VGPR, PR; n = 19), Example 6 (Table 13)
Assay type: in vivo, human
Details: plasma protein (OLINK NPX); responders (CR, VGPR, PR; n = 19); itacitinib 200 mg or 300 mg QD with corticosteroids; day 28 vs baseline
Procedure, shortened: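 Longitudinal comparison, day 28 versus baseline, with steroid-naive (N=10) and steroid-refractory (N=18) patients combined. Proteins measured by OLINK proximity extension, log2 normalized protein expression. Differences tested by t tests, ANOVA, Pearson correlation, P<0.05 significant.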

B1: CD48 (protein, UniProt P09326 27-220, looked up)
CD48 antigen: QGHLVHMTVVSGSNVTLNISESLPENYKQLTWFYTFDQKIVEWDSRKSKYFESKFKGRVRLDPQSGALYISKVQKEDNSTYIMRVLKKTGNEQEWKIKLQVLDPVPKPVIKIEKIEDMDDNCYLKLSCVIPGESVNYTWYGDKRPFPKELQNSVLETTLMPHNYSRCYTCQVSNSVSSKNGTVCLSPPCTLARS
Fold Change, Decreased Expression from Baseline to Day 28: −1.6022

B2: HCLS1 (protein, UniProt P14317 1-486, looked up)
Hematopoietic lineage …: MWKSVVGHDVSVSVETQGDDWDTDPDFVNDISEKEQRWGAKTIEGSGRTEHINIHQLRNKVSEEHDVLRKKEMESGPKASHGYGGRFGVERDRMDKSAVGHEYVAEVEKHSSQTDAAKGFGGKYGVERDRADKSAVGFDYKGEVEKHTSQKDYSRGFGGRYGVEKDKWDKAALGYDYKGETEKHESQRDYAKGFGGQYGIQKDRVDKSAVGFNEMEAPTTAYKKTTPIEAASSGTRGLKAKFESMAEEKRKREEEEKAQQVARRQQERKAVTKRSPEAPQPVIAMEEPAVPAPLPKKISSEAWPPVGTPPSSESEPVRTSREHPVPLLPIRQTLPEDNEEPPALPPRTLEGLQVEEEPVYEAEPEPEPEPEPEPENDYEDVEEMDRHEQEDEPEGDYEEVLEPEDSSFSSALAGSSGCPAGAGAGAVALGISAVAVYDYQGEGSDELSFDPDDVITDIEMVDEGWWRGRCHGHFGLFPANYVKLLE
Fold Change, Decreased Expression from Baseline to Day 28: −1.455

B3: PODXL (protein, UniProt O00592 23-558, looked up)
Podocalyxin: SPSPSPSPSQNATQTTTDSSNKTAPTPASSVTIMATDTAQQSTVPTSKANEILASVKATTLGVSSDSPGTTTLAQQVSGPVNTTVARGGGSGNPTTTIESPKSTKSADTTTVATSTATAKPNTTSSQNGAEDTTNSGGKSSHSVTTDLTSTKAEHLTTPHPTSPLSPRQPTSTHPVATPTSSGHDHLMKISSSSSTVAIPGYTFTSPGMTTTLLETVFHHVSQAGLELLTSGDLPTLASQSAGITASSVISQRTQQTSSQMPASSTAPSSQETVQPTSPATALRTPTLPETMSSSPTAASTTHRYPKTPSPTVAHESNWAKCEDLETQTQSEKQLVLNLTGNTLCAGGASDEKLISLICRAVKATFNPAQDKCGIRLASVPGSQTVVVKEITIHTKLPAKDVYERLKDKWDELKEAGVSDMKLGDQGPPEEAEDRFSMPLIITIVCMASFLLLVAALYGCCHQRLSQRKDQQRLTEELQTVENGYHDNPTLEVMETSSEMQEKKVVSLNGELGDSWIVPLDNLTKDDLDEEEDTHL
Fold Change, Increased Expression from Baseline to Day 28: 1.2014

B4: ICAM3 (protein, UniProt P32942 30-547, looked up)
Intercellular adhesion …: QEFLLRVEPQNPVLSAGGSLFVNCSTDCPSSEKIALETSLSKELVASGMGWAAFNLSNVTGNSRILCSVYCNGSQITGSSNITVYRLPERVELAPLPPWQPVGQNFTLRCQVEDGSPRTSLTVVLLRWEEELSRQPAVEEPAEVTATVLASRDDHGAPFSCRTELDMQPQGLGLFVNTSAPRQLRTFVLPVTPPRLVAPRFLEVETSWPVDCTLDGLFPASEAQVYLALGDQMLNATVMNHGDTLTATATATARADQEGAREIVCNVTLGGERREARENLTVFSFLGPIVNLSEPTAHEGSTVTVSCMAGARVQVTLDGVPAAAPGQPAQLQLNATESDDGRSFFCSATLEVDGEFLHRNSSVQLRVLYGPKIDRATCPQHLKWKDKTRHVLQCQARGNPYPELRCLKEGSSREVPVGIPFFVNVTHNGTYQCQASSSRGKYTLVVVMDIEAGSSHFVPVFVAVLLTLGVVTIVLALMYVFREHQRSGSYHVREESTYLPLTSMQPTEAMGEEPSRAE
Fold Change, Decreased Expression from Baseline to Day 28: −1.464

B5: SOST (protein, UniProt Q9BQB4 24-213, looked up)
Sclerostin: QGWQAFKNDATEIIPELGEYPEPPPELENNKTMNRAENGGRPPHHPFETKDVSEYSCRELHFTRYVTDGPCRSAKPVTELVCSGQCGPARLLPNAIGRGKWWRPSGPDFRCIPDRYRAQRVQLLCPGGEAPRARKVRLVASCKCKRLTRFHNQSELKDFGTEAARPQKGRKPRPRARSAKANQAELENAY
Fold Change, Decreased Expression from Baseline to Day 28: −1.3214

B6: ANGPTL3 (protein, UniProt Q9Y5C1 17-460, looked up)
Angiopoietin-related protein 3: SRIDQDNSSFDSLSPEPKSRFAMLDDVKILANGLLQLGHGLKDFVHKTKGQINDIFQKLNIFDQSFYDLSLQTSEIKEEEKELRRTTYKLQVKNEEVKNMSLELNSKLESLLEEKILLQQKVKYLEEQLTNLIQNQPETPEHPEVTSLKTFVEKQDNSIKDLLQTVEDQYKQLNQQHSQIKEIENQLRRTSIQEPTEISLSSKPRAPRTTPFLQLNEIRNVKHDGIPAECTTIYNRGEHTSGMYAIRPSNSQVFHVYCDVISGSPWTLIQHRIDGSQNFNETWENYKYGFGRLDGEFWLGLEKIYSIVKQSNYVLRIELEDWKDNKHYIEYSFYLGNHETNYTLHLVAITGNVPNAIPENKDLVFSTWDHKAKGHFNCPEGYSGGWWWHDECGENNLNGKYNKPRAKSKPERRRGLSWKSQNGRLYSIKSTKMLIHPTDSESFE
Fold Change, Increased Expression from Baseline to Day 28: 1.2673

B7: SIT1 (protein, UniProt Q9Y3P8 25-196, looked up)
Signaling …: DNCTDLLALGIPSITQAWGLWVLLGAVTLLFLISLAAHLSQWTRGRSRSHPGQGRSGESVEEVPLYGNLHYLQTGRLSQDPEPDQQDPTLGGPARAAEEVMCYTSLQLRPPQGRIPGPGTPVKYSEVVLDSEPKSQASGPEPELYASVCAQTRRARASFPDQAYANSQPAAS
Fold Change, Decreased Expression from Baseline to Day 28: −1.5501

B8: CD244 (protein, UniProt Q9BZW8 22-370, looked up)
Natural killer cell receptor …: CQGSADHVVSISGVPLQLQPNSIQTKVDSIAWKKLLPSQNGFHHILKWENGSLPSNTSNDRFSFIVKNLSLLIKAAQQQDSGLYCLEVTSISGKVQTATFQVFVFESLLPDKVEKPRLQGQGKILDRGRCQVALSCLVSRDGNVSYAWYRGSKLIQTAGNLTYLDEEVDINGTHTYTCNVSNPVSWESHTLNLTQDCQNAHQEFRFWPFLVIIVILSALFLGTLACFCVWRRKRKEKQSETSPKEFLTIYEDVKDLKTRRNHEQEQTFPGGGSTIYSMIQSQSSAPTSQEPAYTLYSLIQPSRKSGSRKRNHSPSFNSTIYEVIGKSQPKAQNPARLSRKELENFDVYS
Fold Change, Decreased Expression from Baseline to Day 28: −1.5176

B9: ROBO2 (protein, UniProt Q9HCK4 22-1378, looked up)
Roundabout homolog 2: SRLRQEDFPPRIVEHPSDVIVSKGEPTTLNCKAEGRPTPTIEWYKDGERVETDKDDPRSHRMLLPSGSLFFLRIVHGRRSKPDEGSYVCVARNYLGEAVSRNASLEVALLRDDFRQNPTDVVVAAGEPAILECQPPRGHPEPTIYWKKDKVRIDDKEERISIRGGKLMISNTRKSDAGMYTCVGTNMVGERDSDPAELTVFERPTFLRRPINQVVLEEEAVEFRCQVQGDPQPTVRWKKDDADLPRGRYDIKDDYTLRIKKTMSTDEGTYMCIAENRVGKMEASATLTVRAPPQFVVRPRDQIVAQGRTVTFPCETKGNPQPAVFWQKEGSQNLLFPNQPQQPNSRCSVSPTGDLTITNIQRSDAGYYICQALTVAGSILAKAQLEVTDVLTDRPPPIILQGPANQTLAVDGTALLKCKATGDPLPVISWLKEGFTFPGRDPRATIQEQGTLQIKNLRISDTGTYTCVATSSSGETSWSAVLDVTESGATISKNYDLSDLPGPPSKPQVTDVTKNSVTLSWQPGTPGTLPASAYIIEAFSQSVSNSWQTVANHVKTTLYTVRGLRPNTIYLFMVRAINPQGLSDPSPMSDPVRTQDISPPAQGVDHRQVQKELGDVLVRLHNPVVLTPTTVQVTWTVDRQPQFIQGYRVMYRQTSGLQATSSWQNLDAKVPTERSAVLVNLKKGVTYEIKVRPYFNEFQGMDSESKTVRTTEEAPSAPPQSVTVLTVGSYNSTSISVSWDPPPPDHQNGIIQEYKIWCLGNETRFHINKTVDAAIRSVIIGGLFPGIQYRVEVAASTSAGVGVKSEPQPIIIGRRNEVVITENNNSITEQITDVVKQPAFIAGIGGACWVILMGFSIWLYWRRKKRKGLSNYAVTFQRGDGGLMSNGSRPGLLNAGDPSYPWLADSWPATSLPVNNSNSGPNEIGNFGRGDVLPPVPGQGDKTATMLSDGAIYSSIDFTTKTSYNSSSQITQATPYATTQILHSNSIHELAVDLPDPQWKSSIQQKTDLMGFGYSLPDQNKGNNGGKGGKKKKNKNSSKPQKNNGSTWANVPLPPPPVQPLPGTELEHYAVEQQENGYDSDSWCPPLPVQTYLHQGLEDELEEDDDRVPTPPVRGVASSPAISFGQQSTATLTPSPREEMQPMLQAHLDELTRAYQFDIAKQTWHIQSNNQPPQPPVPPLGYVSGALISDLETDVADDDADDEEEALEIPRPLRALDQTPGSSMDNLDSSVTGKAFTSSQRPRPTSPFSTDSNTSAALSQSQRPRPTKKHKGGRMDQQPALPHRREGMTDEEALVPYSKPSFPSPGGHSSSGTASSKGSTGPRKTEVLRAGHQRNASDLLDIGYMGSNSQGQFTGEL
Fold Change, Increased Expression from Baseline to Day 28: 1.249

B10: B4GAT1 (protein, UniProt O43505 1-415, looked up)
Beta-1,4-glucuronyltransferase …: MQMSYAIRCAFYQLLLAALMLVAMLQLLYLSLLSGLHGQEEQDQYFEFFPPSPRSVDQVKAQLRTALASGGVLDASGDYRVYRGLLKTTMDPNDVILATHASVDNLLHLSGLLERWEGPLSVSVFAATKEEAQLATVLAYALSSHCPDMRARVAMHLVCPSRYEAAVPDPREPGEFALLRSCQEVFDKLARVAQPGINYALGTNVSYPNNLLRNLAREGANYALVIDVDMVPSEGLWRGLREMLDQSNQWGGTALVVPAFEIRRARRMPMNKNELVQLYQVGEVRPFYYGLCTPCQAPTNYSRWVNLPEESLLRPAYVVPWQDPWEPFYVAGGKVPTFDERFRQYGFNRISQACELHVAGFDFEVLNEGFLVHKGFKEALKFHPQKEAENQHNKILYRQFKQELKAKYPNSPRRC
Fold Change, Increased Expression from Baseline to Day 28: 1.2795

B11: MPO (protein, UniProt P05164 165-745, looked up)
Myeloperoxidase: VTCPEQDKYRTITGMCNNRRSPTLGASNRAFVRWLPAEYEDGFSLPYGWTPGVKRNGFPVALARAVSNEIVRFPTDQLTPDQERSLMFMQWGQLLDHDLDFTPEPAARASFVTGVNCETSCVQQPPCFPLKIPPNDPRIKNQADCIPFFRSCPACPGSNITIRNQINALTSFVDASMVYGSEEPLARNLRNMSNQLGLLAVNQRFQDNGRALLPFDNLHDDPCLLTNRSARIPCFLAGDTRSSEMPELTSMHTLLLREHNRLATELKSLNPRWDGERLYQEARKIVGAMVQIITYRDYLPLVLGPTAMRKYLPTYRSYNDSVDPRIANVFTNAFRYGHTLIQPFMFRLDNRYQPMEPNPRVPLSRVFFASWRVVLEGGIDPILRGLMATPAKLNRQNQIAVDEIRERLFEQVMRIGLDLPALNMQRSRDHGLPGYNAWRRFCGLPQPETVGQLGTVLRNLKLARKLMEQYGTPNNIDIWMGGVSEPLKRKGRVGPLLACIIGTQFRKLRDGDRFWWENEGVFSMQQRQALAQISLPRIICDNTGITTVSKNNIFMSNSYPRDFVNCSTLPALNLASWREAS
Fold Change, Decreased Expression from Baseline to Day 28: −1.8431
